Source: publication doi:10.1101/2020.01.12.903617, “The peptide sensor motif stabilizes the outward-facing conformation of TmrAB” (bioRxiv, 2020)
No end group written: not given here. fluorescein = fluorescein label attached to the Cys side chain

Assays:
[1] = molecular target: T1, WT TmrAB, heterodimeric peptide exporter from Thermus thermophilus (Thermus thermophilus, UniProt Q72J05 1-600; Q72J04 1-578); test: fluorescence polarisation; 1.7 uM TmrAB with 50 nM RRY(C^Fluorescein)KSTEL in SEC buffer (20 mM HEPES, 150 mM NaCl, pH 7, 0.05% ß-DDM), 15 minutes on ice, in the absence or presence of 5 mM ATP and 10 mM MgCl2; read at 25°C (the results say 4°C); signal normalized to WT without ATP; settings: both partners purified
T1 construct: TmrA, Thermus thermophilus, the chain of TmrAB with the canonical Walker B motif; TmrB, Thermus thermophilus, the chain of TmrAB with the non-canonical Walker B motif; TmrAB template in pet22b; also called wild-type TmrAB
T1 sequence 1: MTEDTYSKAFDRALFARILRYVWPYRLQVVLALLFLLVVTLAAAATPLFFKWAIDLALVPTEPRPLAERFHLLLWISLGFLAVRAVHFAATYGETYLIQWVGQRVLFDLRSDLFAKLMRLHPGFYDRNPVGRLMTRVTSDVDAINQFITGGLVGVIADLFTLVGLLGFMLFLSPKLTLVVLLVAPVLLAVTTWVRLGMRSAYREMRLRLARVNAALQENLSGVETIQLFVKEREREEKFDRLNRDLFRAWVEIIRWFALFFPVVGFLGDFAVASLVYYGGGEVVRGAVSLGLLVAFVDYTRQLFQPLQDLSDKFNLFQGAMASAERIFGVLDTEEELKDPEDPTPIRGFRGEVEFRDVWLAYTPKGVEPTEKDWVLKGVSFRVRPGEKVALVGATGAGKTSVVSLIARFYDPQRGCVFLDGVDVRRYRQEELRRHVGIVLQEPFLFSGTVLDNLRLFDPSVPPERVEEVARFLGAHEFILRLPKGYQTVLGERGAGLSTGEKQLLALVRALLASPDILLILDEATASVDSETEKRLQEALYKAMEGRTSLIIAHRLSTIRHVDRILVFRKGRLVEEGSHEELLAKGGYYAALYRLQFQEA
T1 sequence 2: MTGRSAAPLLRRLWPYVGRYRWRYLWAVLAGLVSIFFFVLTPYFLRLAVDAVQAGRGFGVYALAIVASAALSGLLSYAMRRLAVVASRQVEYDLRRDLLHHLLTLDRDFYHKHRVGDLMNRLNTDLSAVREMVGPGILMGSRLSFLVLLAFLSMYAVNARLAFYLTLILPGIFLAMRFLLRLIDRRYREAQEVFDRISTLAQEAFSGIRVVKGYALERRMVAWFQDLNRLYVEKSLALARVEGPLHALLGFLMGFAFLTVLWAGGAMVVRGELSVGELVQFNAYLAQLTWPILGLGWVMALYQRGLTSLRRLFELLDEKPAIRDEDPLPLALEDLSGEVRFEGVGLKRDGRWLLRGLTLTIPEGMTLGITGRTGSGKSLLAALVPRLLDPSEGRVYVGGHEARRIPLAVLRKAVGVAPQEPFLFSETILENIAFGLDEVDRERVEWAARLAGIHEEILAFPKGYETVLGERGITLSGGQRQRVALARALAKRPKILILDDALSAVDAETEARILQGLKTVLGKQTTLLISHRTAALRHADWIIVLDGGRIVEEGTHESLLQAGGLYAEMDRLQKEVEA

[2] = molecular target: T2, TmrAB R121A^TmrB (Thermus thermophilus, UniProt Q72J05 1-600; Q72J04 1-578, R121A); test: as above; settings: both partners purified
T2 construct: TmrA, Thermus thermophilus, the chain of TmrAB with the canonical Walker B motif; TmrB, Thermus thermophilus, the chain of TmrAB with the non-canonical Walker B motif
T2 sequence 1: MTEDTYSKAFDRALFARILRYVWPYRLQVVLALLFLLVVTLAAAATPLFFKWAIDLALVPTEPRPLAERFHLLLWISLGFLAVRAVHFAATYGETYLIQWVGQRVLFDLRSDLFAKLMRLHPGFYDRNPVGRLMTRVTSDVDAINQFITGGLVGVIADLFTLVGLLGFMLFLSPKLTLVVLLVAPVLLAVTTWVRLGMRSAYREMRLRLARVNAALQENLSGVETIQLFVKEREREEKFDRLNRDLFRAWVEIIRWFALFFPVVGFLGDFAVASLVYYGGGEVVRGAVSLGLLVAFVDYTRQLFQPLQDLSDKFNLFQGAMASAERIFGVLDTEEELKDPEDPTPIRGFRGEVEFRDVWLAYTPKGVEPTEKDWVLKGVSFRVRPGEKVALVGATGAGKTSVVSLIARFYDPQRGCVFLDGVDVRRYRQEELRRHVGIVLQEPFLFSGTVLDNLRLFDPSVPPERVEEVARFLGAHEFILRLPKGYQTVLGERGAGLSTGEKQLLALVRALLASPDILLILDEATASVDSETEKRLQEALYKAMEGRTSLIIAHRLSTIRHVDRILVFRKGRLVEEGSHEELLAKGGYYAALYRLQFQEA
T2 sequence 2: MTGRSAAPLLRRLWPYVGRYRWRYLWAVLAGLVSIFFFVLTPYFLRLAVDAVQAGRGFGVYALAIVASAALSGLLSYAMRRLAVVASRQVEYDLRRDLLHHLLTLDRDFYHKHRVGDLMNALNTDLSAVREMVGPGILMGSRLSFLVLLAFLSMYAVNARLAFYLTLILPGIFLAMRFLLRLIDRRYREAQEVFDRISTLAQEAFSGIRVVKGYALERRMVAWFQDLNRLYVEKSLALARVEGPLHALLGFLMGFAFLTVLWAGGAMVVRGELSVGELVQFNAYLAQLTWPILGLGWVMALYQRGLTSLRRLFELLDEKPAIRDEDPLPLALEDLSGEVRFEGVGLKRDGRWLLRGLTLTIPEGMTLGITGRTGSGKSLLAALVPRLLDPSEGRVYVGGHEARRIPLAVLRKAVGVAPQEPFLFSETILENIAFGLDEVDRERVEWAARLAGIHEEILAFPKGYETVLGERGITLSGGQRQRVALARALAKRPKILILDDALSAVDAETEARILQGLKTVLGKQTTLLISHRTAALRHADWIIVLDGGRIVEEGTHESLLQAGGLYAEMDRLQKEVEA

B1: fluorescent transport substrate peptide RRY(C^Fluorescein)KSTEL (peptide)
peptide: RRYC(fluorescein)KSTEL
notes: fluorescein-labelled transport substrate peptide of TmrAB; also called fluorescently-labeled peptide substrate; peptide substrate; source: bought: Genscript
binding result [1]: binds
binding result [2]: binds
